In paper PMC2953525, “Subtle Alterations in PCNA-Partner Interactions Severely Impair DNA Replication and Repair” (PLoS Biology, 2010):

Legend:
Assay in all cases: Yeast two hybrid (Y2H) analysis of PCNA-partner interaction
Format in all cases: binding
Parameters in all cases: key: ++: major increase in growth; +: moderate increase in growth; similar growth as the WT PCNA-expressing cells; -: minor decrease in growth; --: moderate decrease in growth; ---: major decrease in growth
Conditions in all cases: spotting onto selective agar plates; PCNA fused to AD, partner to BD
Msh3 = system: Msh3
Experimental: (§1) Y2H analysis was performed using the Yeast Two Hybrid Phagemid vector kit (Stratagene), following the manufacturer's instructions. The pAD-PCNA-WT/mutant plasmids were used as bait while plasmids encoding 12 different PCNA partners (Table 1 and Table S1) were used as prey. The YRG2 host strain (Stratagene) was cotransformed with pAD-PCNA WT/mutant and pBD-partner plasmids in all possible combinations using the LiAC method. Single transformants were grown in liquid SC-Leu-Trp to O.D600 10, washed twice with DDW, and diluted to an initial OD600 of 0.3. A series of 10-fold serial dilutions was then spotted onto selective SC-Leu-Trp-His plates and incubated at 30°C for 3 d. For quantitative Y2H, the generation time of the indicated mutants and their respective partners were calculated from their growth curves in liquid SC-Leu-Trp-His media. Cells were grown overnight in SC-Leu-Trp, washed twice with ddH2O, and diluted by a factor of 1∶50 into 10 ml of pre-warmed SC-Leu-Trp-His. O.D600 measurements of the cultures were taken at the indicated time; the generation time (τ) was calculated from the growth curves according to the equation ODt = OD0×2^t/τ. The generation time calculated for each culture is an average of at least 3 independent experiments.
(§2) Table S1: Yeast two hybrid analysis of binding of selected PCNA mutants with seven additional partners not described in Table 1 of the main text. […]
(§3) pol30-Rad30E2 WT WT WT WT WT WT - pol30-Rad30E9 WT WT WT WT WT WT WT pol30-Rad27E6 WT WT WT WT + WT WT pol30-Rad27E31 WT WT WT WT + WT WT pol30-Rad27L1 WT -- WT WT -- WT WT pol30-Rad27L2 WT -- WT WT -- WT WT pol30-Pol32E5 WT WT WT WT WT WT WT pol30-Pol32E9 - WT WT WT WT WT WT pol30-Msh6E2 WT WT + WT WT WT WT pol30-Msh6E6 WT WT ++ WT WT WT WT pol30-Ung1E3 WT - WT WT WT WT WT pol30-79 --- --- --- - --- --- --- a PCNA mutants with enhanced affinities for the different target partners (see Table 1, text). b PCNA mutants were fused to the activating domain (AD), while the different partners were fused to the DNA-binding domain (BD). The growth of the resulting Y2H strains was compared to the growth of the WT PCNA-expressing strain following spotting onto selective agar plates (see Material and Methods). Growth rates on the agar plates were scored and tabulated as follows: ++ major increase in growth; + moderate increase in growth; WT-similar growth as the WT PCNA-expressing cells; - minor decrease in growth; -- moderate decrease in growth; --- major decrease in growth. ND-Not determined.

Apn2 = system: Apn2
Experimental: as §1, §2, §3

Rrm3 = system: Rrm3
Experimental: as §1, §2, §3

Cdc9 = system: Cdc9
Experimental: as §1, §2, §3

Cac1 = system: Cac1
Experimental: as §1, §2, §3

Rfc1 = system: Rfc1
Experimental: as §1, §2, §3

Eco1 = system: Eco1
Experimental: as §1, §2, §3

B1: pol30-Msh6E6: PCNA mutant evolved for Msh6, IDCL sequence DYDKDLLKIIEL (protein)
chain: MLEAKFEEASLFKRIIDGFKDCVQLVNFQCKEDGIIAQAVDDSRVLLVSLEIGVEAFQEYRCDHPVTLGMDLTSLSKILRCGNNTDTLTLIADNTPDSIILLFEDTKKDRIAEYSLKLMDYDKDLLKIIELQYDSTLSLPSSEFSKIVRDLSQLSDSINIMITKETIKFVADGDIGSGSVIIKPFVDMEHPETSIKLEMDQPVDLTFGAKYLLDIIKGSSLSDRVGIRLSSEAPALFQFDLKSGFLQFFLAPKFNDEE
modifications: left off: Gal4 activation domain, end not stated, kept
Q: What does the source list for B1?
A: Y2H growth relative to WT PCNA-expressing strain: Msh3 (Msh3): ++; Y2H growth relative to WT PCNA-expressing strain: Apn2 (Apn2): WT; Y2H growth relative to WT PCNA-expressing strain: Rrm3 (Rrm3): WT; Y2H growth relative to WT PCNA-expressing strain: Cdc9 (Cdc9): WT; Y2H growth relative to WT PCNA-expressing strain: Cac1 (Cac1): WT; Y2H growth relative to WT PCNA-expressing strain: Rfc1 (Rfc1): WT; Y2H growth relative to WT PCNA-expressing strain: Eco1 (Eco1): WT

B2: pol30-79: previously studied PCNA mutant with decreased partner binding, IDCL sequence DIDADFAKAEEL (protein)
chain: MLEAKFEEASLFKRIIDGFKDCVQLVNFQCKEDGIIAQAVDDSRVLLVSLEIGVEAFQEYRCDHPVTLGMDLTSLSKILRCGNNTDTLTLIADNTPDSIILLFEDTKKDRIAEYSLKLMDIDADFAKAEELQYDSTLSLPSSEFSKIVRDLSQLSDSINIMITKETIKFVADGDIGSGSVIIKPFVDMEHPETSIKLEMDQPVDLTFGAKYLLDIIKGSSLSDRVGIRLSSEAPALFQFDLKSGFLQFFLAPKFNDEE
modifications: left off: Gal4 activation domain, end not stated, kept
Q: What does the source list for B2?
A: Y2H growth relative to WT PCNA-expressing strain: Msh3 (Msh3): ---; Y2H growth relative to WT PCNA-expressing strain: Apn2 (Apn2): ---; Y2H growth relative to WT PCNA-expressing strain: Rrm3 (Rrm3): ---; Y2H growth relative to WT PCNA-expressing strain: Cdc9 (Cdc9): ---; Y2H growth relative to WT PCNA-expressing strain: Cac1 (Cac1): ---; Y2H growth relative to WT PCNA-expressing strain: Rfc1 (Rfc1): -; Y2H growth relative to WT PCNA-expressing strain: Eco1 (Eco1): ---

B3: pol30-Rad30E2: PCNA mutant evolved for Rad30, IDCL sequence DDDWDFLKILEL (protein)
chain: MLEAKFEEASLFKRIIDGFKDCVQLVNFQCKEDGIIAQAVDDSRVLLVSLEIGVEAFQEYRCDHPVTLGMDLTSLSKILRCGNNTDTLTLIADNTPDSIILLFEDTKKDRIAEYSLKLMDDDWDFLKILELQYDSTLSLPSSEFSKIVRDLSQLSDSINIMITKETIKFVADGDIGSGSVIIKPFVDMEHPETSIKLEMDQPVDLTFGAKYLLDIIKGSSLSDRVGIRLSSEAPALFQFDLKSGFLQFFLAPKFNDEE
modifications: left off: Gal4 activation domain, end not stated, kept
Q: For B3, which “Y2H growth relative to WT PCNA-expressing strain: Msh3” value (Msh3) is on record?
A: WT

Q: And the “Y2H growth relative to WT PCNA-expressing strain: Apn2” value (Apn2)?
A: -

Q: And the “Y2H growth relative to WT PCNA-expressing strain: Rrm3” value (Rrm3)?
A: WT

Q: What about the “Y2H growth relative to WT PCNA-expressing strain: Cdc9” value (Cdc9) of the same molecule?
A: WT

Q: And the “Y2H growth relative to WT PCNA-expressing strain: Cac1” value (Cac1)?
A: WT

Q: What about the “Y2H growth relative to WT PCNA-expressing strain: Rfc1” value (Rfc1) of the same molecule?
A: WT

Q: And the “Y2H growth relative to WT PCNA-expressing strain: Eco1” value (Eco1)?
A: WT

B4: pol30-Rad30E9: PCNA mutant evolved for Rad30, IDCL sequence DNDWDFLKIDEL (protein)
chain: MLEAKFEEASLFKRIIDGFKDCVQLVNFQCKEDGIIAQAVDDSRVLLVSLEIGVEAFQEYRCDHPVTLGMDLTSLSKILRCGNNTDTLTLIADNTPDSIILLFEDTKKDRIAEYSLKLMDNDWDFLKIDELQYDSTLSLPSSEFSKIVRDLSQLSDSINIMITKETIKFVADGDIGSGSVIIKPFVDMEHPETSIKLEMDQPVDLTFGAKYLLDIIKGSSLSDRVGIRLSSEAPALFQFDLKSGFLQFFLAPKFNDEE
modifications: left off: Gal4 activation domain, end not stated, kept
Q: For B4, which “Y2H growth relative to WT PCNA-expressing strain: Msh3” value (Msh3) is on record?
A: WT

Q: What about the “Y2H growth relative to WT PCNA-expressing strain: Apn2” value (Apn2) of the same molecule?
A: WT

Q: And the “Y2H growth relative to WT PCNA-expressing strain: Rrm3” value (Rrm3)?
A: WT

Q: What about the “Y2H growth relative to WT PCNA-expressing strain: Cdc9” value (Cdc9) of the same molecule?
A: WT

Q: What about the “Y2H growth relative to WT PCNA-expressing strain: Cac1” value (Cac1) of the same molecule?
A: WT

Q: What about the “Y2H growth relative to WT PCNA-expressing strain: Rfc1” value (Rfc1) of the same molecule?
A: WT

Q: And the “Y2H growth relative to WT PCNA-expressing strain: Eco1” value (Eco1)?
A: WT

B5: pol30-Rad27E6: PCNA mutant evolved for Rad27, IDCL sequence DGDYDILKIREL (protein)
chain: MLEAKFEEASLFKRIIDGFKDCVQLVNFQCKEDGIIAQAVDDSRVLLVSLEIGVEAFQEYRCDHPVTLGMDLTSLSKILRCGNNTDTLTLIADNTPDSIILLFEDTKKDRIAEYSLKLMDGDYDILKIRELQYDSTLSLPSSEFSKIVRDLSQLSDSINIMITKETIKFVADGDIGSGSVIIKPFVDMEHPETSIKLEMDQPVDLTFGAKYLLDIIKGSSLSDRVGIRLSSEAPALFQFDLKSGFLQFFLAPKFNDEE
modifications: left off: Gal4 activation domain, end not stated, kept
Q: What does the source list for B5?
A: Y2H growth relative to WT PCNA-expressing strain: Msh3 (Msh3): WT; Y2H growth relative to WT PCNA-expressing strain: Apn2 (Apn2): WT; Y2H growth relative to WT PCNA-expressing strain: Rrm3 (Rrm3): WT; Y2H growth relative to WT PCNA-expressing strain: Cdc9 (Cdc9): WT; Y2H growth relative to WT PCNA-expressing strain: Cac1 (Cac1): +; Y2H growth relative to WT PCNA-expressing strain: Rfc1 (Rfc1): WT; Y2H growth relative to WT PCNA-expressing strain: Eco1 (Eco1): WT

B6: pol30-Pol32E5: PCNA mutant evolved for Pol32, IDCL sequence DADNDFLKISEL (protein)
chain: MLEAKFEEASLFKRIIDGFKDCVQLVNFQCKEDGIIAQAVDDSRVLLVSLEIGVEAFQEYRCDHPVTLGMDLTSLSKILRCGNNTDTLTLIADNTPDSIILLFEDTKKDRIAEYSLKLMDADNDFLKISELQYDSTLSLPSSEFSKIVRDLSQLSDSINIMITKETIKFVADGDIGSGSVIIKPFVDMEHPETSIKLEMDQPVDLTFGAKYLLDIIKGSSLSDRVGIRLSSEAPALFQFDLKSGFLQFFLAPKFNDEE
modifications: left off: Gal4 activation domain, end not stated, kept
Q: Which results are given for B6?
A: Y2H growth relative to WT PCNA-expressing strain: Msh3 (Msh3): WT; Y2H growth relative to WT PCNA-expressing strain: Apn2 (Apn2): WT; Y2H growth relative to WT PCNA-expressing strain: Rrm3 (Rrm3): WT; Y2H growth relative to WT PCNA-expressing strain: Cdc9 (Cdc9): WT; Y2H growth relative to WT PCNA-expressing strain: Cac1 (Cac1): WT; Y2H growth relative to WT PCNA-expressing strain: Rfc1 (Rfc1): WT; Y2H growth relative to WT PCNA-expressing strain: Eco1 (Eco1): WT

B7: pol30-Pol32E9 (protein)
chain: MLEAKFEEASLFKRIIDGFKDCVQLVNFQCKEDGIIAQAVDDSRVLLVSLEIGVEAFQEYRCDHPVTLGMDLTSLSKILRCGNNTDTLTLIADNTPDSIILLFEDTKKDRIAEYSLKLMDNDVDSLKIIELQYDSTLSLPSSEFSKIVRDLSQLSDSINIMITKETIKFVADGDIGSGSVIIKPFVDMEHPETSIKLEMDQPVDLTFGAKYLLDIIKGSSLSDRVGIRLSSEAPALFQFDLKSGFLQFFLAPKFNDEE
modifications: left off: Gal4 activation domain, end not stated, kept
Q: Which results are given for B7?
A: Y2H growth relative to WT PCNA-expressing strain: Msh3 (Msh3): WT; Y2H growth relative to WT PCNA-expressing strain: Apn2 (Apn2): WT; Y2H growth relative to WT PCNA-expressing strain: Rrm3 (Rrm3): WT; Y2H growth relative to WT PCNA-expressing strain: Cdc9 (Cdc9): -; Y2H growth relative to WT PCNA-expressing strain: Cac1 (Cac1): WT; Y2H growth relative to WT PCNA-expressing strain: Rfc1 (Rfc1): WT; Y2H growth relative to WT PCNA-expressing strain: Eco1 (Eco1): WT
